In patent US20110223176A1 (AbbVie / Abbott, published 2011):

How the values were obtained:
[1] = biological target: T1, purified recombinant human BSG2 extracellular domain (human, UniProt P35613 22-325); test: SPR (Biacore), mAb captured by anti-mouse Fc, BSG2 ECD injected, 25 C
T1 construct: also called Human BSG2 ECD
T1 sequence: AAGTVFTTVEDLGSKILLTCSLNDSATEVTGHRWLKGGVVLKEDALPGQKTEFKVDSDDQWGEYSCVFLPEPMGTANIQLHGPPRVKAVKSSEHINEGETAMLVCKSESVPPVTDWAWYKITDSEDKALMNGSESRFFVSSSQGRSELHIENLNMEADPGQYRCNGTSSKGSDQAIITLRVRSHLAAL
Procedure: (§1) Binding of BSG2 antibodies to a purified recombinant BSG2 extracellular domain (ECD) was determined by surface plasmon resonance-based measurements with a Biacore® instrument (either a Biacore 2000, Biacore 3000, or Biacore T100; GE Healthcare, Piscataway, N.J., US). The assay format for mAb affinity analysis was Fc-based capture via immobilized anti-Fc IgG. A standard amine coupling protocol was employed to immobilize Fc-specific IgG via primary amines to the carboxy-methyl (CM) dextran surface of CMS sensorchips. For the study of mouse anti-human BSG2 mAbs, anti-mouse Fc was used as the immobilized capture reagent. An automated protocol, available on the Biacore 2000, was used to immobilize 8000-10000RU of capture reagent in all 4 flowcells of the sensorchip. Binding was recorded as a function of time and kinetic rate constants were calculated. In this assay, on-rates as fast as 10⁷M⁻¹ s⁻¹ and off-rates as slow as 10⁻⁵ s⁻¹ can be measured.
(§2) Briefly, the CM-dextran surfaces were activated by freshly prepared 1:1 […] 3-(N,N-dimethylamino)propyl-N-ethylcarbodiimide (EDC). Then the anti-Fc IgG capture reagent (20 μg/ml in 10 mM sodium acetate, pH 4.5) was applied to the surface followed by deactivation of the surface and blocking of the residual reactive sites with 1M ethanolamine (pH 8.5). The running buffer employed was PBS-PB [1×PBS (Sigma P3813), pH 7.4, 0.005% P20 surfactant, 0.1 mg/ml BSA (Sigma-A7906)] and the assay temperature was 25° C. All reagents were diluted into running buffer to the specified concentrations. Each experimental cycle consisted of the following steps: (1) anti-BSG2 mAbs at 0.5 to 1 μg/ml were captured in flowcells 2, 3 or 4 to a level of 100-120RU. All measurements were referenced against flowcell 1 which had no captured anti-BSG2 mAb; (2) human BSG2 ECD was injected through all 4 flowcells, 240 μl at 80 μl/min. After the antigen injection, dissociation was monitored for 600 seconds at 80 μl/min; and (3) the anti-Fc capture surface was regenerated with 10 mM glycine, pH 1.5.
(§3) The BSG2 antibody binding affinities were determined by the BIACORE technology as described in Example 1.2. Table 10 represents the antibody binding kinetics against human and cynomolgus monkey BSG2 extracellular domain (ECD).

[2] = biological target: T2, cynomolgus monkey BSG2 extracellular domain (cynomolgus monkey); test: as above
T2 construct: extracellular domain; also called Cynomolgus BSG2 ECD
Procedure: as §1, §2, §3

[3] = biological target: T3, human BSG2 (basigin isoform 2) on the cell surface (human, UniProt P35613 140-385); test: receptor binding assay, Eu-labeled antibody on cells expressing human BSG2
T3 construct: Presented on stably transfected BAF3 cells or endogenously on human tumor cell lines (HepG2, MiaPaCa-2, DoHH-2); also called hBSG2; CD147
T3 sequence: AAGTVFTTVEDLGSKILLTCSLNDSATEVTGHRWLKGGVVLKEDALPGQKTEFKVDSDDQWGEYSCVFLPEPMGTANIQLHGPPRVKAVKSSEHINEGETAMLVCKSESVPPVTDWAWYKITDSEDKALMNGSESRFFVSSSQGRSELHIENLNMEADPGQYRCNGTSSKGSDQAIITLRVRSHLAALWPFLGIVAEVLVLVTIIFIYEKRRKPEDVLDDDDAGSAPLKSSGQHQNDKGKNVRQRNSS
Procedure: Cell lines expressing BSG2 were harvested and washed once in assay buffer (PBS, 0.1% BSA, 0.02% Na Azide, 10 mM EDTA) and resuspended to 5×10⁶ cells per mL. Serial 1:2 dilutions of ⁺³Eu-labeled anti-BSG2 antibody stock in assay buffer were made for final concentrations ranging from 1.6×10⁻⁸-7.7×10⁻¹² M, and a 4 mg/mL solution of unlabeled anti-BSG2 antibody was also prepared. To 96 well round bottom plates, 25 μl of ⁺³Eu-labeled antibody dilutions were added to 25 μl buffer (total counts), or 25 μl of unlabeled antibody were added to 25 μl buffer (background counts). 50 μl of cells at 2.5×10⁵ cells per well were then added to all samples, mixed gently, and incubated on ice for 1 hour. Cell bound antibody was then separated from unbound antibody by transferring 20 μL of the reaction mixture to Acrowell 96 well filter plates (Pall PN 5020), centrifuged for 5 min (2200 rpm), washed 3× with 150 μL cold assay buffer, and centrifuged for 5 min. Signal was determined by incubating samples with 150 μL/well of enhancement buffer and read using Envision. The specific counts were determined by subtracting the background counts (cells+labeled antibody+excess cold antibody) from the corresponding total counts (cells+labeled antibody) for each antibody concentration. The labeled antibody concentration versus total counts was analyzed using Graphpad Prism 4 to calculate Kd and Bmax values.

[4] = biological target: T4, cynomolgus monkey BSG2 on the cell surface (cynomolgus monkey); test: cell-based ECL (MSD) binding on whole cells expressing cynomolgus BSG2
T4 construct: whole, on cells; also called BAF3-cyno BSG2; Cyno BSG2
Procedure: Cells were plated at 25,000 cells/well in 25 μl PBS using 96 well MSD high binding plates (MSD, catalogue no. L11XB-3), and incubated at 37° C. for 1 hour. 25 μl/well of blocking solution (30% serum in PBS) was added to the plates for 30 minutes at room temperature with mild agitation. Plates were then incubated with 25 μl/well of BSG2 antibodies (10 μg/ml) diluted in assay buffer (10% serum in PBS) for 1 hour at room temperature with mild agitation, and then washed 3× with PBS. Goat anti-mouse or anti-human IgG sulfotag was added at 1 μg/ml for 1 hour with mild agitation, and plates were washed 3× with PBS. After the final wash, plates were incubated with 2×MSD surfactant-free read buffer (catalogue no. R92TD-2) and the signal was detected on a MSD SECTOR Imager 6000. Data were analyzed using Graphpad Prism software and EC₅₀ values were reported.
BSG2 antibody binding activities against whole cells expressing human or cynomolgus monkey BSG2 were assessed by ECL using MSD technology (described in Example 1.3) and the receptor binding assay (described in Example 1.4) and are shown in Table 11.

B1: mouse anti-human BSG2 monoclonal antibody ML64-6A11-3A3 (antibody, mouse IgG2a, V domains shown)
VH: EVKLEESGGGLVQPGGSMKLSCVASGFTFSNFWMDWVRQSPEKGLEWIAGIRLKSYNYATHYAESVKGRFTISRDDSKSSVYLQMNNLRAEDTGIYYCTDWDGAYWGQGTLVTVSA
VL: DIVMTQSHKFMSTSVGDRVSITCKASQDVSTDVAWYQQKPGQSPKLLIYSASYRYTGVPDRFTGSGSGTDFTFTISSVQAEDLAVYYCQQHYSTPFTFGSGTKLEIK
notes: Hybridoma antibody, mouse IgG2a/kappa; also called 6A11-3A3 parental mouse antibody; Ab 3A3
Kd [1]: 1.5 nM
koff [1]: 0.00059 s⁻¹
kon [1]: 400000 M⁻¹ s⁻¹
Kd [2]: 440 nM
koff [2]: 0.149 s⁻¹
kon [2]: 338000 M⁻¹ s⁻¹
Kd [3]: 2 nM
EC50 [4]: 7.6 nM
